The record followed here is patent US20250057918A1 (YALE UNIVERSITY, published 2025).

Where only a bound is given, the exact number is not on record here.

The EC50 (read off the curve) is the concentration at which the effect is half-maximal. Read a high EC50 (read off the curve) as lower potency in that assay.

In assay [1] the target is T1, mouse IL-18BP (amino acids 31-194) (mouse, UniProt Q9Z0M9 29-193, biotinylated on the AviTag (BirA ligase)).
T1 construct: Secreted decoy receptor; made in Expi293 cells (H7 signal peptide); the stated range is the same as for the human protein; also called mIL-18BP
T1 sequence: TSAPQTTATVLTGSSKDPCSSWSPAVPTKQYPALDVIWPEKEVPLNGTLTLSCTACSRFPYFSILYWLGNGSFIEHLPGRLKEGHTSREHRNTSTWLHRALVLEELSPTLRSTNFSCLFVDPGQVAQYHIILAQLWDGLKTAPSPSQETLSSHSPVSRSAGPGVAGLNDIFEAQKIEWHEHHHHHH
In words: SPR; KD BP / KD Ra normalized to WT IL-18. In general terms: SPR reads the build-up and loss of mass on a sensor chip optically.

Assay [2] has as its target T1, mouse IL-18BP (amino acids 31-194). Description: on-yeast isotherms; KD IL-18BP / KD IL-18Rα.
Assay [3] deals with T2, mouse IL-18Rα ectodomain (amino acids 19-329) (mouse, UniProt Q61098 19-329, biotinylated on the AviTag (BirA ligase)).
T2 construct: range 19-329; Secreted from Expi293 cells (H7 signal peptide); also called mIL-18Rα; Ra
T2 sequence: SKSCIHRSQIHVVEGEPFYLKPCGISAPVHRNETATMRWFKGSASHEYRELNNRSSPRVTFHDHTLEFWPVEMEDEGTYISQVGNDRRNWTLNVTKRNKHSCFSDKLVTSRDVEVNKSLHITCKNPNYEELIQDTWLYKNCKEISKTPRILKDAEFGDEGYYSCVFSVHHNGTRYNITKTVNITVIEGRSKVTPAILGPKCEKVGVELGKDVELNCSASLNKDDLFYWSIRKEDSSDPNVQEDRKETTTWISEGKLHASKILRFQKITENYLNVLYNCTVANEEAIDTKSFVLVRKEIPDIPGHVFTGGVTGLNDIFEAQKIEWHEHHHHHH
In words: flow cytometry, mIL-18Rα titrated on yeast-displayed murine IL-18 variant (binding isotherm, %Max).

Assay [4] has as its target T1, mouse IL-18BP (amino acids 31-194). In words: SPR; KD IL-18BP / KD IL-18Rα. As for the experimental part: (§1) By contrast, very little binding is observed with the same variants and mIL-18BP (right). (FIG. 11B) Representative surface plasmon resonance sensorgrams between immobilized biotinylated mIL-18BP and the murine DR-IL-18 variants.
(§2) Experiments were conducted using a Biacore™ T100 (Protein analysis interaction system) and carried out at 25° C. Biotinylated IL-18Rα or TL-18BP were immobilized onto a Biacore™ biotin capture chip (Series S CAP sensor chip, GE Healthcare) to yield an Rmax of ˜50 RU (IL-18Rα) or ˜10 RU (IL-18BP). Measurements were made with serial dilutions of the IL-18 variants in HEPES buffered Saline-P+ buffer (10 mM HEPES pH 7.4, 150 mM NaCl, 0.005% surfactant P20). The surface was regenerated by three 60-see injections of regeneration buffer (3/4 (v/v) 8M guanidine hydrochloride with 1/4 (v/v) 1M sodium hydroxide). Experiments were performed in multiple channels simultaneously for increased observations. All data were analyzed with the Biacore™ T100 evaluation software version 2.0 with a 1:1 Langmuir binding model.

Assay [5] has the same target. In words: SPR; KD IL-18BP / KD IL-18Rα (30 µM used for NBD). As for the experimental part:
as §1, §2

The target is the same in assay [6]. In words: on-yeast isotherms; KD IL-18BP / KD IL-18Rα (10 µM used for NBD).

B1: wild-type mouse IL-18 (mature form) (ligand)
chain: NFGRLHCTTAVIRNINDQVLFVDKRQPVFEDMTDIDQSASEPQTRLIIYMYKDSEVRGLAVTLSVKDSKMSTLSCKNKIISFEEMDPPENIDDIQSDLIFFQKRVPGHNKMEFESSLYEGHFLACQKEDDAFKLILKKKDENGDKSVMFTLTNLHQS
notes: recombinant from E. coli with C-terminal hexahistidine tag in SPR; also called mIL-18 WT; WT mIL-18
For B1, in assay [1], the “IL-18 BP:Ra Dissociation Constant Ratio” value came to 1. Moreover, the “KD ratio: IL-18BP/IL-18Rα” value in assay [2] is 0.188; in assay [4], 0.00183. The half-maximal effective concentration (EC50 (read off the curve)) in assay [3] is roughly 10 nM.

B2: mE8 (ligand)
chain: NFGRLHCTTAVIRNINDQVLFVDKRQPVFEDMTDIDQSASEPQTRLIIYVYTDGRRRGKAVTLSVKDSKMSTLSCKNKIISFEEMDPPENIDDIQSDLIFFQKKVPGHDKMEFESSLYEGHFLACQKEDDAFKLILKKKDENGDKSVMFTLTNLHQS
notes: recombinant with C-terminal hexahistidine tag in SPR
Take B2: the “KD ratio: IL-18BP/IL-18Rα” value in assay [5] is greater than 17800; in assay [6], greater than 238.
